# Assay results published in patent publication US20230406951A1 (Pfizer, published 2023).
# T1: human TNFR2 (human, UniProt P20333 23-461)
# T1 construct: expressed on the surface of CHO cells; also called HuTNFR2; TNFRSF1B
# T1 sequence: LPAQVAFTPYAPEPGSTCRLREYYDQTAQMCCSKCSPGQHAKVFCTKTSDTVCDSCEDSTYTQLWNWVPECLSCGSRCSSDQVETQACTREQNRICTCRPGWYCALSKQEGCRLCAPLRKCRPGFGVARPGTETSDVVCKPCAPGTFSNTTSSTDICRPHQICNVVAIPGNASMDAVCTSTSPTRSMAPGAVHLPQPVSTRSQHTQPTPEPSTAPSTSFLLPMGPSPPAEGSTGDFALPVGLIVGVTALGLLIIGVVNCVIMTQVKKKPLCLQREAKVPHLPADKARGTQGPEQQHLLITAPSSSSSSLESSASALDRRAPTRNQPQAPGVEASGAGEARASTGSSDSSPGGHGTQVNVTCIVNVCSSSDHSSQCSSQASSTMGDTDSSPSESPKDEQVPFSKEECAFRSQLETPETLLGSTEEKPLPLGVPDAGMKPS
# Molecular target: T1, human TNFR2
# Test: binding to human TNFR2 CHO cells
row,Binder,binding result
1,"TetraFab 2060 (antibody, TetraFab) heavy: QVQLVQSGAEVKKPGASVKVSCKVSGFSFPSSGVDWVRQAPGQGLEWLGVTWGVGSTHYNQKFQGRVTITKDTSKSTVYMELSSLRSEDTAVYYCASGEHDEGFVYWGQGTLVTVSSASTKGPSVFPLAPSSKSTSGGTAALGCLVKDYFPEPVTVSWNSGALTSGVHTFPAVLQSSGLYSLSSVVTVPSSSLGTQTYICNVNHKPSNTKVDKKVEPKSCGGGGSQVQLVQSGAEVKKPGASVKVSCKVSGFSFPSSGVDWVRQAPGQGLEWLGVTWGVGSTHYNQKFQGRVTITKDTSKSTVYMELSSLRSEDTAVYYCASGEHDEGFVYWGQGTLVTVSSASTKGPSVFPLAPSSKSTSGGTAALGCLVKDYFPEPVTVSWNSGALTSGVHTFPAVLQSSGLYSLSSVVTVPSSSLGTQTYICNVNHKPSNTKVDKKVEPKSCDKTHTCPPCPAPEAAGAPSVFLFPPKPKDTLMISRTPEVTCVVVDVSHEDPEVKFNWYVDGVEVHNAKTKPREEQYNSTYRVVSVLTVLHQDWLNGKEYKCKVSNKALPAPIEKTISKAKGQPREPQVYTLPPSREEMTKNQVSLTCLVKGFYPSDIAVEWESNGQPENNYKTTPPVLDSDGSFFLYSKLTVDKSRWQQGNVFSCSVMHEALHNHYTQKSLSLSPGK light: DIQLTQSPSFLSASVGDRVTITCKASQNVGTAVAWYQQKPGKAPKLLIYAASTLQSGVPSRFSGSGSGTEFTLTISSLQPEDFATYYCQQYSSYPLTFGGGTKVEIKRTVAAPSVFIFPPSDEQLKSGTASVVCLLNNFYPREAKVQWKVDNALQSGNSQESVTEQDSKDSTYSLSSTLTLSKADYEKHKVYACEVTHQGLSSPVTKSFNRGEC",no binding
2,"TetraFab 2059 (antibody, TetraFab) heavy: QVQLVQSGAEVKKPGASVKVSCKVSGFSFPSSGVDWVRQAPGQGLEWLGVTWGVGSTHYNQKFQGRVTITKDTSKSTVYMELSSLRSEDTAVYYCASGESTEGFVYWGQGTLVTVSSASTKGPSVFPLAPSSKSTSGGTAALGCLVKDYFPEPVTVSWNSGALTSGVHTFPAVLQSSGLYSLSSVVTVPSSSLGTQTYICNVNHKPSNTKVDKKVEPKSCGGGGSQVQLVQSGAEVKKPGASVKVSCKVSGFSFPSSGVDWVRQAPGQGLEWLGVTWGVGSTHYNQKFQGRVTITKDTSKSTVYMELSSLRSEDTAVYYCASGESTEGFVYWGQGTLVTVSSASTKGPSVFPLAPSSKSTSGGTAALGCLVKDYFPEPVTVSWNSGALTSGVHTFPAVLQSSGLYSLSSVVTVPSSSLGTQTYICNVNHKPSNTKVDKKVEPKSCDKTHTCPPCPAPEAAGAPSVFLFPPKPKDTLMISRTPEVTCVVVDVSHEDPEVKFNWYVDGVEVHNAKTKPREEQYNSTYRVVSVLTVLHQDWLNGKEYKCKVSNKALPAPIEKTISKAKGQPREPQVYTLPPSREEMTKNQVSLTCLVKGFYPSDIAVEWESNGQPENNYKTTPPVLDSDGSFFLYSKLTVDKSRWQQGNVFSCSVMHEALHNHYTQKSLSLSPGK light: DIQLTQSPSFLSASVGDRVTITCKASQNVGTAVAWYQQKPGKAPKLLIYAASTLQSGVPSRFSGSGSGTEFTLTISSLQPEDFATYYCQQYSSYPLTFGGGTKVEIKRTVAAPSVFIFPPSDEQLKSGTASVVCLLNNFYPREAKVQWKVDNALQSGNSQESVTEQDSKDSTYSLSSTLTLSKADYEKHKVYACEVTHQGLSSPVTKSFNRGEC",no binding
3,"TetraFab 2066 (antibody, TetraFab) heavy: QVQLVQSGAEVKKPGASVKVSCKVSGFSFPSSGVDWVRQAPGQGLEWLGVTKGQGSTHYNQKFQGRVTITKDTSKSTVYMELSSLRSEDTAVYYCASGEQDEGFVYWGQGTLVTVSSASTKGPSVFPLAPSSKSTSGGTAALGCLVKDYFPEPVTVSWNSGALTSGVHTFPAVLQSSGLYSLSSVVTVPSSSLGTQTYICNVNHKPSNTKVDKKVEPKSCGGGGSQVQLVQSGAEVKKPGASVKVSCKVSGFSFPSSGVDWVRQAPGQGLEWLGVTKGQGSTHYNQKFQGRVTITKDTSKSTVYMELSSLRSEDTAVYYCASGEQDEGFVYWGQGTLVTVSSASTKGPSVFPLAPSSKSTSGGTAALGCLVKDYFPEPVTVSWNSGALTSGVHTFPAVLQSSGLYSLSSVVTVPSSSLGTQTYICNVNHKPSNTKVDKKVEPKSCDKTHTCPPCPAPEAAGAPSVFLFPPKPKDTLMISRTPEVTCVVVDVSHEDPEVKFNWYVDGVEVHNAKTKPREEQYNSTYRVVSVLTVLHQDWLNGKEYKCKVSNKALPAPIEKTISKAKGQPREPQVYTLPPSREEMTKNQVSLTCLVKGFYPSDIAVEWESNGQPENNYKTTPPVLDSDGSFFLYSKLTVDKSRWQQGNVFSCSVMHEALHNHYTQKSLSLSPGK light: DIQLTQSPSFLSASVGDRVTITCKASQNVGTAVAWYQQKPGKAPKLLIYAASTLQSGVPSRFSGSGSGTEFTLTISSLQPEDFATYYCQQYSSYPLTFGGGTKVEIKRTVAAPSVFIFPPSDEQLKSGTASVVCLLNNFYPREAKVQWKVDNALQSGNSQESVTEQDSKDSTYSLSSTLTLSKADYEKHKVYACEVTHQGLSSPVTKSFNRGEC",no binding

# Next, values leading:
row,binding result,Binder
1,no binding,"TetraFab 2058 (antibody, TetraFab) heavy: QVQLVQSGAEVKKPGASVKVSCKVSGFSFPSSGVDWVRQAPGQGLEWLGVTHGSGSTHYNQKFQGRVTITKDTSKSTVYMELSSLRSEDTAVYYCASGEWDEGFVYWGQGTLVTVSSASTKGPSVFPLAPSSKSTSGGTAALGCLVKDYFPEPVTVSWNSGALTSGVHTFPAVLQSSGLYSLSSVVTVPSSSLGTQTYICNVNHKPSNTKVDKKVEPKSCGGGGSQVQLVQSGAEVKKPGASVKVSCKVSGFSFPSSGVDWVRQAPGQGLEWLGVTHGSGSTHYNQKFQGRVTITKDTSKSTVYMELSSLRSEDTAVYYCASGEWDEGFVYWGQGTLVTVSSASTKGPSVFPLAPSSKSTSGGTAALGCLVKDYFPEPVTVSWNSGALTSGVHTFPAVLQSSGLYSLSSVVTVPSSSLGTQTYICNVNHKPSNTKVDKKVEPKSCDKTHTCPPCPAPEAAGAPSVFLFPPKPKDTLMISRTPEVTCVVVDVSHEDPEVKFNWYVDGVEVHNAKTKPREEQYNSTYRVVSVLTVLHQDWLNGKEYKCKVSNKALPAPIEKTISKAKGQPREPQVYTLPPSREEMTKNQVSLTCLVKGFYPSDIAVEWESNGQPENNYKTTPPVLDSDGSFFLYSKLTVDKSRWQQGNVFSCSVMHEALHNHYTQKSLSLSPGK light: DIQLTQSPSFLSASVGDRVTITCKASQNVGTAVAWYQQKPGKAPKLLIYAASTLQSGVPSRFSGSGSGTEFTLTISSLQPEDFATYYCQQYSSYPLTFGGGTKVEIKRTVAAPSVFIFPPSDEQLKSGTASVVCLLNNFYPREAKVQWKVDNALQSGNSQESVTEQDSKDSTYSLSSTLTLSKADYEKHKVYACEVTHQGLSSPVTKSFNRGEC"
2,no binding,"TetraFab 2065 (antibody, TetraFab) heavy: QVQLVQSGAEVKKPGASVKVSCKVSGFSFPSSGVDWVRQAPGQGLEWLGVTKGQGSTHYNQKFQGRVTITKDTSKSTVYMELSSLRSEDTAVYYCASGERDEGFVYWGQGTLVTVSSASTKGPSVFPLAPSSKSTSGGTAALGCLVKDYFPEPVTVSWNSGALTSGVHTFPAVLQSSGLYSLSSVVTVPSSSLGTQTYICNVNHKPSNTKVDKKVEPKSCGGGGSQVQLVQSGAEVKKPGASVKVSCKVSGFSFPSSGVDWVRQAPGQGLEWLGVTKGQGSTHYNQKFQGRVTITKDTSKSTVYMELSSLRSEDTAVYYCASGERDEGFVYWGQGTLVTVSSASTKGPSVFPLAPSSKSTSGGTAALGCLVKDYFPEPVTVSWNSGALTSGVHTFPAVLQSSGLYSLSSVVTVPSSSLGTQTYICNVNHKPSNTKVDKKVEPKSCDKTHTCPPCPAPEAAGAPSVFLFPPKPKDTLMISRTPEVTCVVVDVSHEDPEVKFNWYVDGVEVHNAKTKPREEQYNSTYRVVSVLTVLHQDWLNGKEYKCKVSNKALPAPIEKTISKAKGQPREPQVYTLPPSREEMTKNQVSLTCLVKGFYPSDIAVEWESNGQPENNYKTTPPVLDSDGSFFLYSKLTVDKSRWQQGNVFSCSVMHEALHNHYTQKSLSLSPGK light: DIQLTQSPSFLSASVGDRVTITCKASQNVGTAVAWYQQKPGKAPKLLIYAASTLQSGVPSRFSGSGSGTEFTLTISSLQPEDFATYYCQQYSSYPLTFGGGTKVEIKRTVAAPSVFIFPPSDEQLKSGTASVVCLLNNFYPREAKVQWKVDNALQSGNSQESVTEQDSKDSTYSLSSTLTLSKADYEKHKVYACEVTHQGLSSPVTKSFNRGEC"
3,no binding,"TetraFab 2063 (antibody, TetraFab) heavy: QVQLVQSGAEVKKPGASVKVSCKVSGFSFPSSGVDWVRQAPGQGLEWLGVTKGQGSTHYNQKFQGRVTITKDTSKSTVYMELSSLRSEDTAVYYCASGESTEGFVYWGQGTLVTVSSASTKGPSVFPLAPSSKSTSGGTAALGCLVKDYFPEPVTVSWNSGALTSGVHTFPAVLQSSGLYSLSSVVTVPSSSLGTQTYICNVNHKPSNTKVDKKVEPKSCGGGGSQVQLVQSGAEVKKPGASVKVSCKVSGFSFPSSGVDWVRQAPGQGLEWLGVTKGQGSTHYNQKFQGRVTITKDTSKSTVYMELSSLRSEDTAVYYCASGESTEGFVYWGQGTLVTVSSASTKGPSVFPLAPSSKSTSGGTAALGCLVKDYFPEPVTVSWNSGALTSGVHTFPAVLQSSGLYSLSSVVTVPSSSLGTQTYICNVNHKPSNTKVDKKVEPKSCDKTHTCPPCPAPEAAGAPSVFLFPPKPKDTLMISRTPEVTCVVVDVSHEDPEVKFNWYVDGVEVHNAKTKPREEQYNSTYRVVSVLTVLHQDWLNGKEYKCKVSNKALPAPIEKTISKAKGQPREPQVYTLPPSREEMTKNQVSLTCLVKGFYPSDIAVEWESNGQPENNYKTTPPVLDSDGSFFLYSKLTVDKSRWQQGNVFSCSVMHEALHNHYTQKSLSLSPGK light: DIQLTQSPSFLSASVGDRVTITCKASQNVGTAVAWYQQKPGKAPKLLIYAASTLQSGVPSRFSGSGSGTEFTLTISSLQPEDFATYYCQQYSSYPLTFGGGTKVEIKRTVAAPSVFIFPPSDEQLKSGTASVVCLLNNFYPREAKVQWKVDNALQSGNSQESVTEQDSKDSTYSLSSTLTLSKADYEKHKVYACEVTHQGLSSPVTKSFNRGEC"
